# Measurements taken from patent US11629364B2, “Methods for synthesizing anticoagulant polysaccharides” (OPTIMVIA, LLC, priority 2019, dated 2023).
# Assay: NST activity: N-sulfated products detected by SAX-HPLC after lyase digestion
# Type: biochemical
# Conditions: PNS or NCS as sulfo donor, N-deacetylated heparosan acceptor, 37° C. overnight
# Description: A study was conducted in accordance with embodiments of the present disclosure to confirm NST activity of enzymes comprising the amino acid sequence of SEQ ID NO: 2, SEQ ID NO: 4, SEQ ID NO: 6, SEQ ID NO: 8, SEQ ID NO: 10, or SEQ ID NO: 12 by detecting the presence of N-sulfated polysaccharide products formed as a result of their sulfotransfer reaction, using mass spectrometry (MS). Each engineered enzyme was purified according to the procedure of Example 1. Sulfotransferase activity was monitored in 100 μL reactions containing 50 μM of enzyme. To each purified protein solution, 20 mg of an aryl sulfate compound (either PNS or NCS) was dissolved in 2 mL of reaction buffer (50 mM IVIES pH 7.0, 2 mM CaCl2)), added to the protein solution, and incubated at 37° C. for 10 min. 2.5 mL of 2 mg/mL solution of N-deacetylated heparosan was added to protein/donor solution and incubated overnight at 37° C. The N-deacetylated heparosan was synthesized according to the protocol described in Balagurunathan, K. et al (eds.) (2015), Glycosaminoglycans: Chemistry and Biology, Methods in Molecular Biology, vol. 1229, DOI 10.1007/978-1-4939-1714-3_2, ©Springer Science+Business Media, New York, pp. 11-19 (section 3.1). To purify the N-sulfated product, the incubated reaction mixture was centrifuged the following day at 5,000×g for 10 min. The filter was washed once with 2 mL water, and centrifuged again. The filtrate was added to a 1K MWCO Dialysis membrane, dialyzed for 2 days in Milli-Q water, with water changes at 1 h, 2 h, 8 h, 16 h, 32 h, and then lyophilized.
# The lyophilized N-sulfated products from each reaction were subsequently digested with a mixture of three carbon-oxygen lyases comprising the amino acid sequences of SEQ ID NO: 30, SEQ ID NO: 31, and SEQ ID NO: 32, which catalyze the β-eliminative cleavage of heparosan-based polysaccharides. Such lyases are available from New England Biolabs, among other chemical and biological commercial entities. 1 μL of each lyase was incubated with 50 μg of the lyophilized sulfated polysaccharide product and the provided digestion buffer, and incubated over 24 hours according to the packaged instructions provided by New England Biolabs with each lyase. After digestion, the lyase enzymes were inactivated by heating to 100° C. for 5 minutes. Samples were centrifuged at 14,000 rpm for 30 minutes before introduction to a strong anion exchange, high performance liquid chromatography (SAX) analysis. SAX analysis was performed on a Dionex Ultimate 3000 LC system interface. Separation was carried out on a 4.6×250 mm Waters Spherisorb analytical column with 5.0 μm particle size at 45° C. Mobile phase solution A was 2.5 mM sodium phosphate, pH 3.5, while mobile phase solution B was 2.5 mM sodium phosphate, pH 3.5, and 1.2 M Sodium perchlorate. After each sample was loaded onto the column, mobile phase solutions were applied to the column at a ratio of 98% mobile phase solution A and 2% mobile phase solution B for five minutes at a flow rate of 1.4 mL/min. After five minutes, a linear gradient of increasing mobile phase solution B was applied until the ratio of mobile phase solution A to mobile phase solution B was 50:50.
row,Molecule,NST sulfotransferase activity with aryl sulfate compounds
1,"SEQ ID NO: 8: engineered aryl sulfate-dependent NST enzyme, mutant of N-sulfotransferase domain of human NDST (protein, Amino acid sequence encoding for engineered arylsulfate-dependent N-sulfotransferase variant 4, engineered aryl sulfate-dependent NST enzyme, mutant of N-sulfotransferase domain of human NDST) MSEEKDPLWQDPCEDKRHKDIWSKEKTCDRFPKLLIIGPHGTGGHALYLFLGMHPDLSSNYPSSETFLSIQFFNGHNYHKGIDWYMEFFPIPSNTTSDFYFEHSGNYFDSEVAPRRAAALLPKAKVLTILINPADRAYRAYVWQRAHDDPVALKYTFHEVITAGSDASSKLRALQNRCLVPGWYATHIERWLSAYHANQILVLDGKLLRTEPAKVMDMVQKFLGVTNTIDYHKTLAFDPKKGFWCQLLEGGKTKCLGKSLGSKYPEMDLDSRAFLKDYYRDHNIELSKLLYKMGQTLPTWLREDLQNTR",activity with both aryl sulfate compounds
2,"SEQ ID NO: 6: engineered aryl sulfate-dependent NST enzyme, mutant of N-sulfotransferase domain of human NDST (protein, Amino acid sequence encoding for engineered arylsulfate-dependent N-sulfotransferase variant 3, engineered aryl sulfate-dependent NST enzyme, mutant of N-sulfotransferase domain of human NDST) MSEEKDPLWQDPCEDKRHKDIWSKEKTCDRFPKLLIIGPHGTGGHALYLFLGMHPDLSSNYPSSETGEEIQFFNGHNYHKGIDWYMEFFPIPSNTTSDFYFEKSANYFDSEVAPRRAAALLPKAKVLTILINPADRAYSWYQAQRAHDDPVALKYTFHEVITAGSDASSKLRALQNRCLVPGWYATHIERWLSAYHANQILVLDGKLLRTEPAKVMDMVQKFLGVTNTIDYHKTLAFDPKKGFWCQLLEGGKTKCGGKHLGRKYPEMDLDSRAFLKDYYRDHNIELSKLLYKMGQTLPTWLREDLQNTR",activity with both aryl sulfate compounds
3,"SEQ ID NO: 10: engineered aryl sulfate-dependent NST enzyme, mutant of N-sulfotransferase domain of human NDST (protein, Amino acid sequence encoding for engineered arylsulfate-dependent N-sulfotransferase variant 5, engineered aryl sulfate-dependent NST enzyme, mutant of N-sulfotransferase domain of human NDST) MSEEKDPLWQDPCEDKRHKDIWSKEKTCDRFPKLLIIGPHKTGVHALYLFLGMHPDLSSNYPSSETGNHIGFFGGHNYHKGIDWYMEFFPIPSNTTSDFYFEKSAWYFDSEVAPRRAAALLPKAKVLTILINPADRAYSWYQHQRAHDDPVALKYTFHEVITAGSDASSKLRALQNRCLVPGWYATHIERWLSAYHANQILVLDGKLLRTEPAKVMDMVQKFLGVTNTIDYHKTLAFDPKKGFWCQLLEGGKTKCLGKSVGRKYPEMDLDSRAFLKDYYRDHNIELSKLLYKMGQTLPTWLREDLQNTR",activity with NCS only
4,"SEQ ID NO: 12: engineered aryl sulfate-dependent NST enzyme, mutant of N-sulfotransferase domain of human NDST (protein, Amino acid sequence encoding for engineered arylsulfate-dependent N-sulfotransferase variant 6, engineered aryl sulfate-dependent NST enzyme, mutant of N-sulfotransferase domain of human NDST) MSEEKDPLWQDPCEDKRHKDIWSKEKTCDRFPKLLIIGPAKTGAWLLHHFLGMHPDLSSNYPSSETHSSIQFFNGHNYHKGIDWYMEFFPIPSNTTSDFYFETSANYFDSEVAPRRAAALLPKAKVLTILINPADRAYSWYQHQRAHDDPVALKYTFHEVITAGSDASSKLRALQNRCLVPGWYATHIERWLSAYHANQILVLDGKLLRTEPAKVMDMVQKFLGVTNTIDYHKTLAFDPKKGFWCQLLEGGKTKCAHKGLGRKYPEMDLDSRAFLKDYYRDHNIELSKLLYKMGQTLPTWLREDLQNTR",activity with PNS only

# Same assay, conditions: procedures of Example 2; expected
row,Molecule,NST activity: N-sulfated products by SAX
1,"SEQ ID NO: 36: mutant of N-sulfotransferase domain of pig NDST carrying the SEQ ID NO: 4 mutations (protein, Amino acid sequence encoding for engineered arylsulfate-dependent N-sulfotransferase variant 10) MSEEKDPLWQDPCEDKRHKDIWSKEKTCDRFPKLLIIGPSKTGAFLLTHFLGLHPDLSSNYPSSETGHSIQFFNGHNYHKGIDWYMDFFPIPSNTTSDFYFETSSNYFDSDVAPRRAAALLPKAKVLTILINPADRAYSWYQHQRAHDDPAALRYTFHEVITAGPDASLKLRALQNRCLVPGWYATHLERWLGAFHANQILVLDGKLLRTEPARVMDTVQKFLGVTNTIDYHKTLAFDPKKGFWCQLLEGGKTKCHGRRWGRKYPDMDPDSRAFLRDYYRDHNIELSKLLYKMGQTLPTWLREELQNTR",confirm the presence of N-sulfated polysaccharide products
2,"SEQ ID NO: 37: mutant of N-sulfotransferase domain of pig NDST carrying the SEQ ID NO: 6 mutations (protein, Amino acid sequence encoding for engineered arylsulfate-dependent N-sulfotransferase variant 11) MSEEKDPLWQDPCEDKRHKDIWSKEKTCDRFPKLLIIGPHHTGGHALYLFLGLHPDLSSNYPSSETGEEIQFFNGHNYHKGIDWYMDFFPIPSNTTSDFYFEKSANYFDSDVAPRRAAALLPKAKVLTILINPADRAYSWYQAQRAHDDPAALRYTFHEVITAGPDASLKLRALQNRCLVPGWYATHLERWLGAFHANQILVLDGKLLRTEPARVMDTVQKFLGVTNTIDYHKTLAFDPKKGFWCQLLEGGKTKCGGRHLGRKYPDMDPDSRAFLRDYYRDHNIELSKLLYKMGQTLPTWLREELQNTR",confirm the presence of N-sulfated polysaccharide products
3,"SEQ ID NO: 35: mutant of N-sulfotransferase domain of pig NDST carrying the SEQ ID NO: 2 mutations (protein, Amino acid sequence encoding for engineered arylsulfate-dependent N-sulfotransferase variant 9) MSEEKDPLWQDPCEDKRHKDIWSKEKTCDRFPKLLIIGPQKTGAWALYHFLGLHPDLSSNYPSSETHGSIQFFNGHNYHKGIDWYMDFFPIPSNTTSDFYFEKSANYFDSDVAPRRAAALLPKAKVLTILINPADRAYSWYQHQRAHDDPAALRYTFHEVITAGPDASLKLRALQNRCLVPGWYATHLERWLGAFHANQILVLDGKLLRTEPARVMDTVQKFLGVTNTIDYHKTLAFDPKKGFWCQLLEGGKTKCLGRSHGRKYPDMDPDSRAFLRDYYRDHNIELSKLLYKMGQTLPTWLREELQNTR",confirm the presence of N-sulfated polysaccharide products
